Results from patent US12269902B2, “Peptide compounds and peptide conjugates for the treatment of cancer through receptor-mediated chemotherapy” (TRANSFERT PLUS, S.E.C., priority 2015, dated 2025).
Residues, ends and D or L forms follow the SMILES beside them. *: point of attachment. X1 = CC(=O)O[C@@]12CO[C@@H]1C[C@H](O)[C@@]1(C)C(=O)[C@H](O)C3=C(C)[C@@H](OC(=O)[C@H](OC(=O)CCC(=O)*)[C@@H](NC(=O)OC(C)(C)C)c4ccccc4)C[C@@](O)([C@@H](OC(=O)c4ccccc4)[C@H]21)C3(C)C; Biotin = O=C1N[C@H]2[C@H](CS[C@H]2CCCCC(=O)*)N1

Legend:
A-375 skin cancer cells = assay: [3H]-Thymidine incorporation cell proliferation assay, A-375; assay type: cell-based; conditions: A-375 (Skin); Table 4; 2 or 3 days
Description: (§1) The effect of the Docetaxel-Katana peptide conjugate on various cell line proliferations was evaluated and compared to unconjugated Docetaxel (Table 4). IC50 values obtained for the Docetaxel-Katana peptide conjugate were very similar to those of Docetaxel in the cancer cells tested.
(§2) The phytochemical Curcumin, unconjugated and conjugated, was also tested on cancer cell proliferation (FIG. 28). Breast cancer cells (MDA-MB231) were incubated with increasing concentrations of KBC106 or curcumin. After 72 hrs, thymidine incorporation assay was performed to assess the anti-proliferative properties of both molecules. IC50 values were extracted from the anti-proliferative curves. […] Proliferation assay was also performed using different types of cancer cells (ovarian, breast, skin and colorectal cancer cells). IC50 values were calculated from the anti-proliferation curves. In all cases, the Curcumin conjugate (KBC106) had stronger anti-proliferative activity (9-100 fold) than unconjugated Curcumin, as shown in Table 6 below.
(§3) Cancer cells were cultured in 96-well white plates (Perkin Elmer). They were synchronized for 24 hours in serum-deprived medium. After incubation of cells with unconjugated drugs (docetaxel, cabazitaxel, doxorubicin) or with drug-Katana peptide conjugates for 2 or 3 days, all media was aspirated and cells were pulse-labeled for 4 hours at 37° C./[…]/5% CO2 with media containing 2.5 μCi/mL [methyl-3H] thymidine (Perkin Elmer). Cells were washed, fixed, and dried before addition of scintillation fluid (Microscint 0, Perkin Elmer). After 24 hours, cell-associated tritium was quantified by counting on a plate reader (TopCount, Perkin Elmer). Incorporated [3H] thymidine was plotted for each drug concentration.

[1] = Tissue distribution of radiolabeled compounds in mice
Description: CD-1 mice were injected with the radiolabeled conjugate at 5 mg/kg via iv bolus injections (21A) or […] of radiolabeled Docetaxel (21B). At the indicated times (1 h, 6 h, 24 h) mice were sacrificed and perfused with saline for 8 min. Tissues were then collected and radioactivity was measured. Results are expressed in terms of ng/g of tissue.
At the indicated times (1, 6 and 24 hours), whole body perfusion was performed for 8 min with saline at a flow rate of 8 ml/min after […] hours iv bolus injections.
After radiolabeling free iodine was remove. Mice were injected with Docetaxel-[^125I]-Katana peptide conjugate at 5 mg/kg. Plasma was collected at the indicated times. After 1, 2 and 24 hours some mice were perfused with saline, sacrificed and tissues were collected. Radioactivity in the plasma and tissues were measured in a radioactivity counter and results were calculated and expressed in terms of […] for the plasma or ng/g of tissues.

[2] = tested on: ES-2 ovarian cancer cells; assay: [3H]-Thymidine incorporation cell proliferation assay, ES-2; assay type: cell-based; conditions: ES-2 (Ovary); Table 4; 2 or 3 days
Description: as §1, §2, §3

[3] = tested on: SK-MEL-28 skin cancer cells; assay: [3H]-Thymidine incorporation cell proliferation assay, SK-MEL-28; assay type: cell-based; conditions: SK-MEL-28 (Skin); Table 4; 2 or 3 days
Description: as §1, §2, §3

[4] = tested on: MDA-MB-231 breast cancer cells; assay: cells; conditions: MDA-MB-231 (Breast); Table 4; 2 or 3 days
Description: Breast cancer cells (MDA-MB231) were incubated with increasing concentrations of KBC106 or curcumin. After 72 hrs, thymidine incorporation assay was performed to assess the anti-proliferative properties of both molecules. IC50 values were extracted from the anti-proliferative curves.
as §2, with “curves.” for “curves. In all cases, the Curcumin conjugate (KBC106) had stronger anti-proliferative activity (9-100 fold) than unconjugated Curcumin, as shown in Table 6 below.”
as §3

P-gp (MDR1) = P-gp (MDR1) (Homo sapiens, UniProt P08183); assay: Drug accumulation in MDCK-MDR1 cells with or without Cyclosporin A; conditions: 50 nM, 1 hr, 37° C., CsA 10 μM
Description: 6A. […] 6B. MDCK-MDR1 cells were incubated with 50 nM of either [^14C]-Doxorubicin or [^125I]-Katana peptide-Doxorubicin conjugate (KBB106) for 1 hr at 37° C. in the presence or absence of CsA (10 μM). After the incubation, cells were washed and radioactivity accumulated in cells was quantified. The results were expressed in terms of uptake fmol/mg of protein.
In order to determine whether the anticancer drug-Katana-peptide conjugates could also be P-gp substrates, MDCK-transfected cells with human MDR1 were used (MDCK-MDR1).
Cells were washed three times with PBS and preincubated for 30 min at 37° C. in culture medium without serum with or without the P-gp inhibitor Cyclosporin A (10 μM). Radiolabelled molecules (50 nM) were then added for 60 min. The cells were rapidly washed three times with ice-cold PBS and then lysed in 500 µL of 0.1 M NaOH. The amount of radiolabelled molecules retained in the cells was counted by β-scintillation counting (Packard model 1900 TR). An aliquot of cell lysate was used in parallel to determine cellular protein concentration.

SKOV3 cancer cells = assay: SKOV3 luciferase subcutaneous xenograft tumour model (Docetaxel, KBA-105); conditions: mice, treatments at 20 mg/kg/week as printed (equivalent dose of Docetaxel)
Description: Mice were implanted in the flank with SKOV3 cancer cells. Tumor growth was monitored by luminescence using the Near Infrared imaging system from Carestream.
Results are expressed in terms of luminescence intensity as a function of post-treatment days.
To further evaluate the in vivo efficacy of the Katana-drug conjugate, SKOV3 cancer cells expressing luciferase were implanted in the mouse flank. […] Tumour imaging was performed on different days by injecting the luciferase substrate luciferin and by using the Xtreme imaging system from Carestream.
Luminescence was then quantified and plotted as a function of days after implantation (FIG. 23).
SKOV3 cancer cells (2.5×10^6 cells) expressing luciferase were implanted in the right flank of mice. Tumour growth was monitored using near infrared (NiR) imaging system from Carestream by injecting the luciferase substrate luciferin. […] Luminescence associated with tumour growth of SKOV3/Luc cancer cells was quantified as a function of post-treatment days with the instrument software.

[5] = Plasma pharmacokinetics of radiolabeled compounds in mice; assay type: in vivo; conditions: mice iv, Docetaxel 2.2 mg/kg, KBA105 5 mg/kg
Description: FIG. 20 is a graph showing concentration of unconjugated and conjugated Docetaxel as a function of time. Mice were injected iv with radiolabeled [^3H]-Docetaxel or radiolabeled [^125I]-KBA105 at an equivalent dose of Docetaxel (Docetaxel=2.2 mg/kg; KBA105=5 mg/kg). Plasma samples were collected at different time points and radioactivity quantified. Results are expressed in terms of KBA105 or Docetaxel concentration in plasma as a function of time. Area under the curve for the time period (AUC1-24) was estimated for KBA105 and Docetaxel using GraphPad Prism software. Ratio between AUC1-24 for KBA105 and Docetaxel was calculated to be around 35.
To evaluate the impact of the drug conjugation to Katana Biopharma peptide on drug pharmacokinetics and tissue distribution, mice were injected with [^125I]-Docetaxel-Katana peptide conjugate. Plasma was collected at different times (FIG. 19A). Radioactivity associated with plasma was quantified and pharmacokinetic parameters were determined. […] In FIG. 20, plasma concentration of Docetaxel-Katana peptide conjugate was compared to that of unconjugated Docetaxel after iv bolus injection.
After radiolabeling free iodine was remove. […] Plasma was collected at the indicated times.

sortilin = target: T1, sortilin (Homo sapiens, UniProt Q99523); assay: biochemical; assay type: binding; conditions: read-out: ka
T1 construct: Increasing concentrations of a soluble form of sortilin was then injected over the sensor chip
T1 sequence (Q99523 78-755 limits assumed): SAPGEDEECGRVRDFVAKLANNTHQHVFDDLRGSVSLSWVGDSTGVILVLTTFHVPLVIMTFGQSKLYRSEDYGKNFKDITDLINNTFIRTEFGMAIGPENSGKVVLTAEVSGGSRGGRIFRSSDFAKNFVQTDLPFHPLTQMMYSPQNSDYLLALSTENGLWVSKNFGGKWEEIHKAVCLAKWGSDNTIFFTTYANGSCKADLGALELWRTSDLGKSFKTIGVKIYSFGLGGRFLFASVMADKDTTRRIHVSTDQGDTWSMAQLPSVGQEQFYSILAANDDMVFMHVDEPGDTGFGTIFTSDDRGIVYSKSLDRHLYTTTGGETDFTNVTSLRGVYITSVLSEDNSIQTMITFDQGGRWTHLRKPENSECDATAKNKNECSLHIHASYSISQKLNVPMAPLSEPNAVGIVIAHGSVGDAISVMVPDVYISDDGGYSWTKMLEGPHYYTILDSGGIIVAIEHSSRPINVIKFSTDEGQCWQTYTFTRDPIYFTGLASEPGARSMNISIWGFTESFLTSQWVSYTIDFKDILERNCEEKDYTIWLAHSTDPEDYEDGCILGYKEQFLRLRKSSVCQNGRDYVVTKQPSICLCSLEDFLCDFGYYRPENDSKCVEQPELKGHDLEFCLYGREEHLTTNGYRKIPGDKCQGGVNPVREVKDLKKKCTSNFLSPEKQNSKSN
Description: Biotinylated Katana peptide was immobilized on a streptavidin sensor chip. A. Soluble sortilin was then injected over the immobilized peptide. The surface plasmon resonance signal was then monitored over time.
Surface plasmon resonance (SPR) was first used to investigate whether these peptides could be recognized by sortilin. For this approach, biotin was added on the C-terminal end of the Katana-Biopharma peptide during peptide synthesis. The biotinylated-peptide (KBP-103) was then immobilized on a streptavidin sensor chip using recommended procedures from the manufacturer. Increasing concentrations of a soluble form of sortilin was then injected over the sensor chip. Interactions between immobilized KBP-103 and the receptor sortilin was then monitored in real time. A representative interaction curve is shown in FIG. 1, and from the sensorgram curves the affinity constant as well as Ka and Kd were determined and are indicated in Table 2. Affinity constants (KD, Ka and […]) were extracted from various injections using the BIA evaluation software.

P-gp (MDR1), sequence (P08183 whole entry): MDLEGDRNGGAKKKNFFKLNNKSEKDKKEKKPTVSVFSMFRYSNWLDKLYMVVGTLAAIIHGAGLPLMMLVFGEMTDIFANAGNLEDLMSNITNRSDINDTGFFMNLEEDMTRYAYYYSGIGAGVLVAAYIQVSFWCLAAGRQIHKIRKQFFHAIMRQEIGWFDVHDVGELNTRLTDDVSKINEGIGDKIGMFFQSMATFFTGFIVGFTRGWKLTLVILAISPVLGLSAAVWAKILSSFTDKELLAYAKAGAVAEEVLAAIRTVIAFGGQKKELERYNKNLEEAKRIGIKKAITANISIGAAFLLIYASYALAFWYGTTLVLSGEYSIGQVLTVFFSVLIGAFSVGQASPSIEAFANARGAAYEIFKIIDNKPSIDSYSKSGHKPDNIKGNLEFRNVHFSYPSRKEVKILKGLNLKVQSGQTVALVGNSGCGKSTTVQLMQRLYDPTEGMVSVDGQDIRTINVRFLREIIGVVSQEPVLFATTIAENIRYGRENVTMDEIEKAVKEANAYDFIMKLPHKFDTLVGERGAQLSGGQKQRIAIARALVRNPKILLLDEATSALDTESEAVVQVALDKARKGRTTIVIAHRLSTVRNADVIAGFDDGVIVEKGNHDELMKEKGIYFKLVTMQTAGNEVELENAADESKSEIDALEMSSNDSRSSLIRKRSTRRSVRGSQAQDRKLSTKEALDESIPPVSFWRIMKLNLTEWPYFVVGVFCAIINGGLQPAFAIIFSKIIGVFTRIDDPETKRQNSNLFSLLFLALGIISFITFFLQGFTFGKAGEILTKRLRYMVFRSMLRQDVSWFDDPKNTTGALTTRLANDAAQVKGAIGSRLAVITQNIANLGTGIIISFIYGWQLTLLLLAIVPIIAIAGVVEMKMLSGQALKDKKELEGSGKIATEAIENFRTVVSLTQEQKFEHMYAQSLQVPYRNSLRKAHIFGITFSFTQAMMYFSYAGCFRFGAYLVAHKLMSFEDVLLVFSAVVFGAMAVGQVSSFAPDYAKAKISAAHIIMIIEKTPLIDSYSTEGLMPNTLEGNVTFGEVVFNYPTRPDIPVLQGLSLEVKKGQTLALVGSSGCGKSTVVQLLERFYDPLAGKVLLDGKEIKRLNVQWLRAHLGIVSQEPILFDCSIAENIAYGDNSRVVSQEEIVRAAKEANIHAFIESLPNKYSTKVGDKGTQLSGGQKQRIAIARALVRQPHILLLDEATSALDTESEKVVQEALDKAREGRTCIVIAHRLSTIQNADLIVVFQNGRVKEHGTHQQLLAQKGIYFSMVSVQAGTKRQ

CSCC[C@H](NC(=O)[C@H](CC(N)=O)NC(=O)[C@H](CCCNC(=N)N)NC(=O)[C@@H](NC(=O)CNC(=O)[C@H](C)NC(=O)[C@H](CCCCNC(=O)CCC(=O)O[C@@H](C(=O)O[C@H]1C[C@@]2(O)[C@@H](OC(=O)c3ccccc3)[C@@H]3[C@]4(OC(C)=O)CO[C@@H]4C[C@H](O)[C@@]3(C)C(=O)[C@H](O)C(=C1C)C2(C)C)[C@@H](NC(=O)OC(C)(C)C)c1ccccc1)NC(=O)[C@H](C)NC(=O)[C@H](CCCNC(=N)N)NC(=O)[C@@H](NC(=O)CNC(C)=O)C(C)C)C(C)C)C(=O)N[C@@H](Cc1ccccc1)C(=O)N[C@@H](CCCCNC(=O)CCC(=O)O[C@@H](C(=O)O[C@H]1C[C@@]2(O)[C@@H](OC(=O)c3ccccc3)[C@@H]3[C@]4(OC(C)=O)CO[C@@H]4C[C@H](O)[C@@]3(C)C(=O)[C@H](O)C(=C1C)C2(C)C)[C@@H](NC(=O)OC(C)(C)C)c1ccccc1)C(=O)N[C@@H](CO)C(=O)N[C@@H](CCC(=O)O)C(=O)N[C@@H](CO)C(=O)N[C@@H](Cc1ccc(O)cc1)C(=O)O [KBA-105] (Ac-GVRAK(X1)AGVRNMFK(X1)SESY-OH; C-terminus assumed)
IC50 (A-375 skin cancer cells): 0.43 nM | Ratio (Estimated Docetaxel/Docetaxel) (AUC1-24) ([1]; Brain): 21.3 | Ratio KBA105/Docetaxel (AUC1-24) ([1]; Brain): 48.3 | Ratio (Estimated Docetaxel/Docetaxel) (AUC1-24) ([1]; Heart): 4.5 | Ratio KBA105/Docetaxel (AUC1-24) ([1]; Heart): 10.3 | Ratio (Estimated Docetaxel/Docetaxel) (AUC1-24) ([1]; Kidney): 5.3 | Ratio KBA105/Docetaxel (AUC1-24) ([1]; Kidney): 12.0 | Ratio (Estimated Docetaxel/Docetaxel) (AUC1-24) ([1]; Liver): 26.4 | Ratio KBA105/Docetaxel (AUC1-24) ([1]; Liver): 60 | Ratio (Estimated Docetaxel/Docetaxel) (AUC1-24) ([1]; Lung): 221 | Ratio KBA105/Docetaxel (AUC1-24) ([1]; Lung): 500 | Ratio (Estimated Docetaxel/Docetaxel) (AUC1-24) ([1]; Mammary): 1.5 | Ratio KBA105/Docetaxel (AUC1-24) ([1]; Mammary): 3.3 | Ratio (Estimated Docetaxel/Docetaxel) (AUC1-24) ([1]; Ovary): 0.7 | Ratio KBA105/Docetaxel (AUC1-24) ([1]; Ovary): 1.6 | Ratio (Estimated Docetaxel/Docetaxel) (AUC1-24) ([1]; Spleen): 25.0 | Ratio KBA105/Docetaxel (AUC1-24) ([1]; Spleen): 24.9 | IC50 [2]: 0.7 nM | IC50 [3]: 0.09 nM | IC50 [4]: 1.03 nM | effect of CsA on accumulation (P-gp (MDR1)): lack of CsA effect | effect on body weight (SKOV3 cancer cells): unaffected | Ratio between AUC1-24 for KBA105 and Docetaxel [5]: around 35

CC[C@H](C)[C@H](N)C(=O)N[C@@H](CCCCN)C(=O)N[C@@H](CC(C)C)C(=O)N[C@@H](CO)C(=O)NCC(=O)NCC(=O)N[C@H](C(=O)N[C@@H](CCC(N)=O)C(=O)N[C@@H](C)C(=O)N[C@@H](CCCCN)C(=O)N[C@@H](C)C(=O)NCC(=O)N[C@H](C(=O)N[C@H](C(=O)N[C@@H](CC(N)=O)C(=O)N[C@@H](CCSC)C(=O)N[C@@H](Cc1ccccc1)C(=O)N[C@@H](CCCCN)C(=O)N[C@@H](CO)C(=O)N[C@@H](CCC(=O)O)C(=O)N[C@@H](CO)C(=O)N[C@@H](Cc1ccc(O)cc1)C(=O)N[C@@H](CCCCNC(=O)CCCC[C@@H]1SC[C@@H]2NC(=O)N[C@@H]21)C(=O)O)[C@@H](C)CC)C(C)C)C(C)C [KBP-103] (H-IKLSGGVQAKAGVINMFKSESYK(Biotin)-OH)
kon (sortilin): 683000 M⁻¹ s⁻¹
